From patent US20240173421A1 (Seagen, published 2024)
Where two headings read alike, the source gives them in different places. Values belong to the binder of their own block, whether it stands above or below them.

Columns and labels:
[1] = molecular target: T1, CD16a (FcγRIIIa) on Jurkat NFAT reporter cells (UniProt P08637 17-254, limits assumed); assay: cell-based or functional assay
[2] = molecular target: T2, FcgRIIa (NFAT activity assay) (UniProt P12318 34-317); assay: cell-based or functional assay
T2 sequence (looked up): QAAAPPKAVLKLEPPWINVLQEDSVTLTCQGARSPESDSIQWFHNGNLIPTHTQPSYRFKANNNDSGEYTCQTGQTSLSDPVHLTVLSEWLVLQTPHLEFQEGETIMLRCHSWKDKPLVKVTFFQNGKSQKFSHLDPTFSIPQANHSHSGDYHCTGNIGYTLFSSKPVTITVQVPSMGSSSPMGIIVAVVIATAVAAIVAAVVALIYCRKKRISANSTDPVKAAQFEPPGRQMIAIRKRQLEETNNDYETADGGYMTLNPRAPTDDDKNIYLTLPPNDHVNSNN

[3] = molecular target: FcgRIa (NFAT activity assay) (UniProt P12314 16-374); assay: cell-based or functional assay
[4] = molecular target: T3, FcgRIIb (human, UniProt P31994 43-217, biotinylated); assay: BLI, FcγR-monomeric Fc fusion on streptavidin sensor
T3 sequence (looked up): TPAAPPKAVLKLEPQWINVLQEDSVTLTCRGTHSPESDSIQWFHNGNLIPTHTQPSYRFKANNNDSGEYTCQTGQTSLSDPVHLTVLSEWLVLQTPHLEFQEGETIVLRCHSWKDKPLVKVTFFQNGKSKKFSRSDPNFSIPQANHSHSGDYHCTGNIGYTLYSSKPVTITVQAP

[5] = molecular target: T1, CD16a (FcγRIIIa) on Jurkat NFAT …; assay: cell-based or functional assay; remark: listed apart in the source
[6] = molecular target: T1, CD16a (FcγRIIIa) on Jurkat NFAT …; assay: cell-based or functional assay; remark: listed apart in the source
[7] = molecular target: T1, CD16a (FcγRIIIa) on Jurkat NFAT …; assay: cell-based or functional assay; remark: listed apart in the source
[8] = molecular target: T1, CD16a (FcγRIIIa) on Jurkat NFAT …; assay: cell-based or functional assay; remark: listed apart in the source
[9] = molecular target: T1, CD16a (FcγRIIIa) on Jurkat NFAT …; assay: cell-based or functional assay; remark: listed apart in the source
[10] = molecular target: T1, CD16a (FcγRIIIa) on Jurkat NFAT …; assay: cell-based or functional assay; remark: listed apart in the source

Chain of FcgRIa (NFAT activity assay) (P12314 16-374): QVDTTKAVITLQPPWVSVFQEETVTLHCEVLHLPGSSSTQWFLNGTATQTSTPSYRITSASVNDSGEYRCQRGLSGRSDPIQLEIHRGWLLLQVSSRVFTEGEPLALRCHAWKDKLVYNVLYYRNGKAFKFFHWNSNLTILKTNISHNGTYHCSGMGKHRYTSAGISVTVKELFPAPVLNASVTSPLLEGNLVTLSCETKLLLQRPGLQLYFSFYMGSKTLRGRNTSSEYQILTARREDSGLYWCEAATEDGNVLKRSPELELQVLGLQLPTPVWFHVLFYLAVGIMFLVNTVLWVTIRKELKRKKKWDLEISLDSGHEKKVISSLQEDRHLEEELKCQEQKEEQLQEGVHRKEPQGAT
T1 sequence (P08637 17-254 limits assumed): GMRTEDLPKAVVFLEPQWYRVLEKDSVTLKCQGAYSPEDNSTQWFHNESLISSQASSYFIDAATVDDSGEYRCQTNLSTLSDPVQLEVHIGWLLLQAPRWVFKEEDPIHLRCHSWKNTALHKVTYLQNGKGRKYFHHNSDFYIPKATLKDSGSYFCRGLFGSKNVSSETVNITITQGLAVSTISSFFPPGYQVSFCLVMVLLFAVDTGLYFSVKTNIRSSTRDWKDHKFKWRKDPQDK

B2: Anti-CD40-AF-1(6) (antibody, human IgG1, kappa)
heavy: not shown
light: DIQMTQSPSSLSASVGDRVTITCRSSQSLVHSNGNTFLHWYQQKPGKAPKLLIYTVSNRFSGVPSRFSGSGSGTDFTLTISSLQPEDFATYFCSQTTHVPWTFGQGTKVEIKRTVAAPSVFIFPPSDEQLKSGTASVVCLLNNFYPREAKVQWKVDNALQSGNSQESVTEQDSKDSTYSLSSTLTLSKADYEKHKVYACEVTHQGLSSPVTKSFNRGEC
modifications: afucosylated N-glycan; compound 1 (disulfide-PEG12) on reduced interchain-disulfide cysteines, 6 per antibody, sites not stated
notes: 6 BPM per antibody; also called Anti-CD40-AF-1 6-load
- Kd [4]: 25 µM

B5: Anti-CD40-AF-1(2) (antibody, human IgG1, kappa)
heavy: not shown
light: DIQMTQSPSSLSASVGDRVTITCRSSQSLVHSNGNTFLHWYQQKPGKAPKLLIYTVSNRFSGVPSRFSGSGSGTDFTLTISSLQPEDFATYFCSQTTHVPWTFGQGTKVEIKRTVAAPSVFIFPPSDEQLKSGTASVVCLLNNFYPREAKVQWKVDNALQSGNSQESVTEQDSKDSTYSLSSTLTLSKADYEKHKVYACEVTHQGLSSPVTKSFNRGEC
modifications: afucosylated N-glycan; compound 1 (disulfide-PEG12) on reduced interchain-disulfide cysteines, 2 per antibody, sites not stated
notes: 2 BPM per antibody; also called Anti-CD40-AF-1 2-load
- Kd [4]: 21 µM
- EC50 (read off the curve), FcγRIIIa NFAT reporter assay [6]: ~0.003 µg/mL

B6: Anti-CD40-AF (afucosylated) (antibody, human IgG1, kappa)
heavy: not shown
light: DIQMTQSPSSLSASVGDRVTITCRSSQSLVHSNGNTFLHWYQQKPGKAPKLLIYTVSNRFSGVPSRFSGSGSGTDFTLTISSLQPEDFATYFCSQTTHVPWTFGQGTKVEIKRTVAAPSVFIFPPSDEQLKSGTASVVCLLNNFYPREAKVQWKVDNALQSGNSQESVTEQDSKDSTYSLSSTLTLSKADYEKHKVYACEVTHQGLSSPVTKSFNRGEC
- EC50, NFAT activity assay [1]: 0.05 µg/mL
- EC50, NFAT activity assay [2]: 0.09 µg/mL
- EC50, NFAT activity assay [3]: 0.07 µg/mL
- EC50 (read off the curve), FcγRIIIa NFAT reporter assay [6]: ~0.01 µg/mL
- EC50 (read off the curve), FcγRIIIa NFAT reporter assay [7]: ~0.001 µg/mL
- EC50 (read off the curve), FcγRIIIa NFAT reporter assay [5]: ~0.01 µg/mL
- EC50 (read off the curve), FcγRIIIa NFAT reporter assay [8]: ~0.001 µg/mL
- EC50 (read off the curve), CD16a NFAT reporter assay [9]: ~0.003 µg/mL

B7: Anti-CD40-AF-1(8) (antibody)
heavy: not shown
light: DIQMTQSPSSLSASVGDRVTITCRSSQSLVHSNGNTFLHWYQQKPGKAPKLLIYTVSNRFSGVPSRFSGSGSGTDFTLTISSLQPEDFATYFCSQTTHVPWTFGQGTKVEIKRTVAAPSVFIFPPSDEQLKSGTASVVCLLNNFYPREAKVQWKVDNALQSGNSQESVTEQDSKDSTYSLSSTLTLSKADYEKHKVYACEVTHQGLSSPVTKSFNRGEC
modifications: reduced interchain-disulfide cysteine carries compound 1; afucosylated N-glycan; reduced interchain-disulfide cysteines carry compound 1 (disulfide-PEG12)
- EC50 (read off the curve), FcγRIIIa NFAT reporter assay [10]: ~0.007 µg/mL

B8: Anti-CD40-AF-9(8) (antibody, human IgG1, kappa)
heavy: not shown
light: DIQMTQSPSSLSASVGDRVTITCRSSQSLVHSNGNTFLHWYQQKPGKAPKLLIYTVSNRFSGVPSRFSGSGSGTDFTLTISSLQPEDFATYFCSQTTHVPWTFGQGTKVEIKRTVAAPSVFIFPPSDEQLKSGTASVVCLLNNFYPREAKVQWKVDNALQSGNSQESVTEQDSKDSTYSLSSTLTLSKADYEKHKVYACEVTHQGLSSPVTKSFNRGEC
modifications: reduced interchain-disulfide cysteine carries compound 9; afucosylated N-glycan; reduced interchain-disulfide cysteines carry compound 9 (maleimidopropionyl-PEG12)
- EC50, NFAT activity assay [1]: 0.22 µg/mL
- EC50, NFAT activity assay [2]: 14.3 µg/mL
- EC50, NFAT activity assay [3]: 0.35 µg/mL

B11: Anti-CD40-AF-1(4) (antibody, human IgG1, kappa)
heavy: not shown
light: DIQMTQSPSSLSASVGDRVTITCRSSQSLVHSNGNTFLHWYQQKPGKAPKLLIYTVSNRFSGVPSRFSGSGSGTDFTLTISSLQPEDFATYFCSQTTHVPWTFGQGTKVEIKRTVAAPSVFIFPPSDEQLKSGTASVVCLLNNFYPREAKVQWKVDNALQSGNSQESVTEQDSKDSTYSLSSTLTLSKADYEKHKVYACEVTHQGLSSPVTKSFNRGEC
modifications: afucosylated N-glycan; compound 1 (disulfide-PEG12) on reduced interchain-disulfide cysteines, 4 per antibody, sites not stated
notes: 4 BPM per antibody; also called Anti-CD40-AF-1 4-load
- Kd [4]: 22 µM

Continued, values first:

- EC50, NFAT activity assay [1]: 0.16 µg/mL
- EC50, NFAT activity assay [2]: 0.08 µg/mL
- EC50, NFAT activity assay [3]: 0.09 µg/mL
B1: Anti-CD40-WT (antibody, human IgG1, kappa)
heavy: not shown
light: DIQMTQSPSSLSASVGDRVTITCRSSQSLVHSNGNTFLHWYQQKPGKAPKLLIYTVSNRFSGVPSRFSGSGSGTDFTLTISSLQPEDFATYFCSQTTHVPWTFGQGTKVEIKRTVAAPSVFIFPPSDEQLKSGTASVVCLLNNFYPREAKVQWKVDNALQSGNSQESVTEQDSKDSTYSLSSTLTLSKADYEKHKVYACEVTHQGLSSPVTKSFNRGEC

- EC50, NFAT activity assay [1]: 2.09 µg/mL
- EC50, NFAT activity assay [2]: 227 µg/mL
- EC50, NFAT activity assay [3]: 3.73 µg/mL
B3: Anti-CD40-AF-10 (antibody, human IgG1, kappa)
heavy: not shown
light: DIQMTQSPSSLSASVGDRVTITCRSSQSLVHSNGNTFLHWYQQKPGKAPKLLIYTVSNRFSGVPSRFSGSGSGTDFTLTISSLQPEDFATYFCSQTTHVPWTFGQGTKVEIKRTVAAPSVFIFPPSDEQLKSGTASVVCLLNNFYPREAKVQWKVDNALQSGNSQESVTEQDSKDSTYSLSSTLTLSKADYEKHKVYACEVTHQGLSSPVTKSFNRGEC
modifications: reduced interchain-disulfide cysteine carries compound 10; afucosylated N-glycan; reduced interchain-disulfide cysteines carry compound 10 (maleimidopropionyl-PEG48)

- EC50 (read off the curve), FcγRIIIa NFAT reporter assay [5]: ~0.001 µg/mL
B4: Anti-CD40-AF-12 with 2 load (antibody, human IgG1, kappa)
heavy: not shown
light: DIQMTQSPSSLSASVGDRVTITCRSSQSLVHSNGNTFLHWYQQKPGKAPKLLIYTVSNRFSGVPSRFSGSGSGTDFTLTISSLQPEDFATYFCSQTTHVPWTFGQGTKVEIKRTVAAPSVFIFPPSDEQLKSGTASVVCLLNNFYPREAKVQWKVDNALQSGNSQESVTEQDSKDSTYSLSSTLTLSKADYEKHKVYACEVTHQGLSSPVTKSFNRGEC
modifications: afucosylated N-glycan; compound 12 (maleimidocaproyl-PEG12) on reduced interchain-disulfide cysteines, 2 per antibody, sites not stated

- EC50 (read off the curve), FcγRIIIa NFAT reporter assay [5]: ~0.002 µg/mL
B9: Anti-CD40-AF-12 with 4 load (antibody, human IgG1, kappa)
heavy: not shown
light: DIQMTQSPSSLSASVGDRVTITCRSSQSLVHSNGNTFLHWYQQKPGKAPKLLIYTVSNRFSGVPSRFSGSGSGTDFTLTISSLQPEDFATYFCSQTTHVPWTFGQGTKVEIKRTVAAPSVFIFPPSDEQLKSGTASVVCLLNNFYPREAKVQWKVDNALQSGNSQESVTEQDSKDSTYSLSSTLTLSKADYEKHKVYACEVTHQGLSSPVTKSFNRGEC
modifications: afucosylated N-glycan; compound 12 (maleimidocaproyl-PEG12) on reduced interchain-disulfide cysteines, 4 per antibody, sites not stated

- EC50 (read off the curve), FcγRIIIa NFAT reporter assay [8]: ~0.007 µg/mL
B10: Anti-CD40-AF-17 (antibody, human IgG1, kappa)
heavy: not shown
light: DIQMTQSPSSLSASVGDRVTITCRSSQSLVHSNGNTFLHWYQQKPGKAPKLLIYTVSNRFSGVPSRFSGSGSGTDFTLTISSLQPEDFATYFCSQTTHVPWTFGQGTKVEIKRTVAAPSVFIFPPSDEQLKSGTASVVCLLNNFYPREAKVQWKVDNALQSGNSQESVTEQDSKDSTYSLSSTLTLSKADYEKHKVYACEVTHQGLSSPVTKSFNRGEC
modifications: reduced interchain-disulfide cysteine carries compound 17; afucosylated N-glycan; reduced interchain-disulfide cysteines carry compound 17 (maleimidocaproyl-(PEG4)2)
